The values below come from publication PMC10397247.

One experiment concerns the target T1, P6A-bP.
T1 chain: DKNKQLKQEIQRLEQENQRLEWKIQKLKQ
Put plainly: two-hybrid library CCNG1.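 Also: natural log of median RNA to DNA barcode read ratio; higher means stronger binding.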

Another experiment addresses T2, P9A-bP.
T2 chain: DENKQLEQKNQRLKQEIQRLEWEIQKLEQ
Kind of experiment: two-hybrid library CCNG1.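 Also: natural log of median RNA to DNA barcode read ratio; higher means stronger binding.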

Another experiment concerns the target T3, P7A-bP.
T3 chain: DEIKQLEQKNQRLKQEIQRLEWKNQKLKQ
Put plainly: two-hybrid library CCNG1.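 Also: natural log of median RNA to DNA barcode read ratio; higher means stronger binding.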

For the next experiment, the target named is T4, P8A-bP.
T4 chain: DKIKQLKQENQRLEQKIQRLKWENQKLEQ
Put plainly: two-hybrid library CCNG1.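 Also: natural log of median RNA to DNA barcode read ratio; higher means stronger binding.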

The next experiment has as its target T5, 4H319-bH.
T5 chain: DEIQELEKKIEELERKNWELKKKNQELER
Kind of experiment: two-hybrid library CCNG1.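 Also: natural log of median RNA to DNA barcode read ratio; higher means stronger binding.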

The next experiment concerns the target T6, 4H2588-bH.
T6 chain: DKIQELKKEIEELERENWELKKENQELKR
Kind of experiment: two-hybrid library CCNG1.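 Also: natural log of median RNA to DNA barcode read ratio; higher means stronger binding.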

A further experiment has as its target T7, 4H2915-bH.
T7 chain: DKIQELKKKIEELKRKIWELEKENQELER
Kind of experiment: two-hybrid library CCNG1.

In a further experiment the target is T8, 4H3277-bH.
T8 chain: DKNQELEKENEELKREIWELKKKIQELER
Kind of experiment: two-hybrid library CCNG1.

Another experiment deals with T9, 4H348-bH.
T9 chain: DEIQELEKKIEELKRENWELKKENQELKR
Kind of experiment: two-hybrid library CCNG1.

Another experiment deals with T10, 4H741-bH.
T10 chain: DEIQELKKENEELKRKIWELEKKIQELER
Kind of experiment: two-hybrid library CCNG1.

The target of the next experiment is T11, 4H2839-bH.
T11 chain: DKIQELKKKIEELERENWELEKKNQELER
Put plainly: two-hybrid library CCNG1.

The target of another experiment is T12, 4H2717-bH.
T12 chain: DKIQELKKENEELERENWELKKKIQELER
Kind of experiment: two-hybrid library CCNG1.

The next experiment deals with T13, 4H3057-bH.
T13 chain: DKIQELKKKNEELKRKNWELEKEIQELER
Put plainly: two-hybrid library CCNG1.

Another experiment deals with T14, 4H492-bH.
T14 chain: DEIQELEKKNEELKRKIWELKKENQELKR
Put plainly: two-hybrid library CCNG1.

The target of a further experiment is T15, 4H2692-bH.
T15 chain: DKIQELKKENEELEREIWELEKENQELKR
Put plainly: two-hybrid library CCNG1.

A further experiment has as its target T16, 4H477-bH.
T16 chain: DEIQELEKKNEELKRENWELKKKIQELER
Kind of experiment: two-hybrid library CCNG1.

A further experiment deals with T17, 4H2585-bH.
T17 chain: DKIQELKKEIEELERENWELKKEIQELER
Put plainly: two-hybrid library CCNG1.

The target of a further experiment is T18, 4H40-bH.
T18 chain: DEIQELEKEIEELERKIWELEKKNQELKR
Kind of experiment: two-hybrid library CCNG1.

A further experiment concerns the target T19, 4H3782-AA.
T19 chain: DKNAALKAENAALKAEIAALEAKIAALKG
Kind of experiment: two-hybrid library CCmax. Conditions: mean of both orientations.

The target in another experiment is T20, 4H3365-AA.
T20 chain: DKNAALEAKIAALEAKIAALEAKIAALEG
Kind of experiment: two-hybrid library CCmax. The note with it: mean of both orientations.

Another experiment deals with T21, 4H_BCR.
T21 chain: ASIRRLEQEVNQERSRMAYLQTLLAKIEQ
Kind of experiment: two-hybrid library CCmax. Conditions: mean of both orientations.

A further experiment has as its target GCN2_T. Kind of experiment: two-hybrid library CCmax.
The next experiment deals with T22, 4H465-AA.
T22 chain: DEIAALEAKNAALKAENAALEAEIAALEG
Kind of experiment: two-hybrid library CCmax. The note with it: mean of both orientations.

The target in a further experiment is T23, 4H3705-AA.
T23 chain: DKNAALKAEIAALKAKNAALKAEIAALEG
Put plainly: two-hybrid library CCmax. Conditions: mean of both orientations.

In another experiment the target is T24, 4H58-AA.
T24 chain: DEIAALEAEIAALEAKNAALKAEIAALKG
Put plainly: two-hybrid library CCmax. The note with it: mean of both orientations.

A further experiment has as its target T25, 4H_APH.
T25 chain: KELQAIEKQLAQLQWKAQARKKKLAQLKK
Kind of experiment: two-hybrid library CCmax. The note with it: mean of both orientations.

The next experiment deals with 4H_GCN4. Put plainly: two-hybrid library CCmax. The note with it: mean of both orientations.
4H_GCN4, sequence (chain, as listed by the source): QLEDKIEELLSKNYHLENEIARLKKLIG
The next experiment concerns the target T26, 4H2898-AA.
T26 chain: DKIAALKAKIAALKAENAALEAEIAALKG
Kind of experiment: two-hybrid library CCmax.

A further experiment addresses T27, 4H895-AA.
T27 chain: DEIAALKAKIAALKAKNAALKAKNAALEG
Put plainly: two-hybrid library CCmax. The note with it: mean of both orientations.

A further experiment addresses T28, 4H3020-AA.
T28 chain: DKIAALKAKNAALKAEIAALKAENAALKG
Kind of experiment: two-hybrid library CCmax. Conditions: mean of both orientations.

The target of another experiment is T29, 4H355-AA.
T29 chain: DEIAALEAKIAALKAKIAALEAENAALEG
Kind of experiment: two-hybrid library CCmax. Conditions: mean of both orientations.

In a further experiment the target is T30, 4H535-AA.
T30 chain: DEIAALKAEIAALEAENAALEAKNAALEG
Put plainly: two-hybrid library CCmax. Conditions: mean of both orientations.

Another experiment addresses T31, 4H486-AA.
T31 chain: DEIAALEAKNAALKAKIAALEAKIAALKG
Put plainly: two-hybrid library CCmax. The note with it: mean of both orientations.

Another experiment addresses T32, 4H3651-AA.
T32 chain: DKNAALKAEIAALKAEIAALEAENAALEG
Kind of experiment: two-hybrid library CCmax. The note with it: mean of both orientations.

With DKNKQLKQEIQRLEQENQRLEWKIQKLKQ [P6A-bP], the interaction score with P6A-bP is -0.494; with P9A-bP, -0.616; with P7A-bP, 0.418; with P8A-bP, -0.264.
For DKIQELEKKNEELKREIWELEKKNQELER [4H2503-bH], the interaction score in the experiment with 4H319-bH is -0.903; with 4H2588-bH it was -0.858; in the experiment with 4H2915-bH it was 0.0935; with 4H3277-bH, -0.644; with 4H348-bH, -0.941; with 4H741-bH, 0.303. The interaction score with 4H2839-bH was 0.527; in the experiment with 4H2717-bH, -0.106; with 4H3057-bH it was 0.435; with 4H492-bH it was -0.241; in the experiment with 4H2692-bH, 0.839; in the experiment with 4H477-bH, -0.993. Also, the interaction score in the experiment with 4H2585-bH was -1.1; in the experiment with 4H40-bH, -2.05.
With DKIAALKAKIAALKAENAALEAEIAALKG [4H2898-AA], the interaction score was -1.39 with 4H3782-AA; -1.78 with 4H3365-AA; 0.271 in the experiment with 4H_BCR; -0.0478 with GCN2_T; -1.49 with 4H465-AA; 1.04 with 4H3705-AA. Also, the interaction score is 2.06 in the experiment with 4H58-AA; -1.54 with 4H_APH; -0.672 with 4H_GCN4; 0.588 with 4H2898-AA; -0.62 with 4H895-AA; -0.301 with 4H3020-AA. For the same molecule, the interaction score in the experiment with 4H355-AA is 0.0321; in the experiment with 4H535-AA, 0.142; with 4H486-AA, 1.49; with 4H3651-AA it was -0.71.
